For the data set, the system named is IL-1-L0-Fok1 zinc finger nuclease (IL-1-Fok1) (synthetic construct). Put plainly: cell_activity. Conditions: inter-chromosomal HR with donor pDAB1600 in tobacco NT1-240; NT1-260 0.1; BY2-380 0.2; donor only 0.

The sequence “ATTATCCGAGTTTAATAGAACTCGGATAAT (double strand) [IL-1-L0-Fok1 recognition site]” yielded an activity (events per selection plate) of 1.2.

The record behind these values is patent US20100257638.
